Source: patent US20100286374A1

Target: huIgG1 Fc (dummy) K409D&K392D (human) [IgG part: P0DOX5]
Assay: co-expression in 293-6E with M315 scFv-Fc D399′K; E357′K, non-reduced SDS-PAGE (FIG. 10), band density

Substance: huIgG1 Fc (dummy) K409D&K392D (from UniProt P0DOX5 218-449)
- percentage of Dummy Fc Homodimer yield: 20.9%
